We go through nine molecules from patent publication US20250064983A1, “COMPOSITIONS AND METHODS FOR TREATING A CARDIAC DISEASE” (The Children's Medical Center Corporation, priority 2022, published 2025).

For one data set, the system named is LKB1 knockout mice. Briefly: Example 5: beat-to-beat variability (EKG) in LKB1 knockout mice (AF model). In kind it is in vivo, mouse. The text has this: Two different atrial fibrillation (AF) mouse models were used to test the efficacy of AIP×5 at treating AF of different origins. The two different AF mouse models were liver kinase B1 (LKB1) knock out mice and T-box transcription factor 5 (Tbx5) knock out mice.
LKB1-floxed or Tbx5-floxed mice were used to test the efficacy of AIP×5. AAV-NPPA-Cre was then used to conditionally knock out LKB1 or Tbx5 from the atria of the mice. NPPA is an atria specific promoter, ensuring that Cre recombinase directed knockout of LKB1 or Tbx5 was restricted to the atria. AAV-NPPA-FP (fluorescent protein) was used as a control virus. AAV-NPPA-FP has no Cre, and therefore the gene of interest is not knocked out. Uninjected mice were also included as a control to account for any effects caused by AAV injections. AAV-cTnT-AIP×5 or AAV-cTnT-CN19o were both tested as potential therapies to AF.
In short, P3 LKB1-floxed or Tbx5-floxed mice were injected (or not injected in the uninjected controls), and then EKG measurements of the mice were taken every two weeks starting at P14. At 12 weeks, the mice were sacrificed, and the sacrificed mice were tested for protein expression.
AF was calculated using the standard deviation of the beat-to-beat timing differences. A high beat-to-beat variability when sedated was indicative of atrial misfiring.
Statistical significance in the tests illustrated in FIGS. 10 and 11 was conducted using a 2-way Anova with post-hoc Dunnett's multiple comparisons to control (FP) group.

For another data set, the target named is CaMKIIδ (Homo sapiens, UniProt Q13557). Briefly: in vitro inhibition of CaMKIIδ, bioluminescent ADP monitoring assay (ADP-GLO). In kind it is biochemical. As to conditions: purified polypeptides. As to the method: FIG. 4 provides a schematic illustrating the design of an in vitro experiment to evaluate the impact of the purified polypeptides described in FIG. 2D and shown in the left portion of FIG. 4 on CaMKIIδ (an isomer of CaMKII) activity. Activity of CaMKIIδ was measured using a bioluminescent and homogeneous ADP monitoring assay for kinases (ADP-GLO™), which is described in Zegzouti, et al. “ADP-Glo: A Bioluminescent and Homogeneous ADP Monitoring Assay for Kinases,” ASSAY and Drug Development Technologies, December 2009, 560-572, doi.org/10.1089/adt.2009.0222, the disclosure of which is incorporated herein by reference in its entirety for all purposes.
Inhibition of CaMKIIδ activity by the polypeptides was evaluated using a bioluminescent and homogeneous ADP monitoring assay for kinases (ADP-GLO™), which is described in Zegzouti, et al. “ADP-Glo: A Bioluminescent and Homogeneous ADP Monitoring Assay for Kinases,” ASSAY and Drug Development Technologies, December 2009, 560-572, doi.org/10.1089/adt.2009.0222, the disclosure of which is incorporated herein by reference in its entirety for all purposes (FIG. 4).
Background: ADP-Glo turns the ADP formed in a reaction into a luminescent signal.

The next data set deals with CaMKII. As to conditions: FIG. 2A, in vitro system of the cited papers; cited from earlier work.
The target in another data set is CaMKIIδ, Q13557. Kind of data set: cell-based or functional assay.
The target in the next data set is T1, AIPx5 multimer.
T1 chain: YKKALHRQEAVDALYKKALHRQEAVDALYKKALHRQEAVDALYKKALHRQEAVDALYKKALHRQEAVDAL

Data set [1] concerns the target T2, autocamtide-2-related inhibitory peptide (AIP).
T2 chain: YKKALHRQEAVDAL

Entries after “also recorded” stand apart in the source; their conditions may differ. Where no end group is shown, it is not given here.

Sequence of CaMKIIδ, Q13557 (Q13557 whole entry, stated change not applied): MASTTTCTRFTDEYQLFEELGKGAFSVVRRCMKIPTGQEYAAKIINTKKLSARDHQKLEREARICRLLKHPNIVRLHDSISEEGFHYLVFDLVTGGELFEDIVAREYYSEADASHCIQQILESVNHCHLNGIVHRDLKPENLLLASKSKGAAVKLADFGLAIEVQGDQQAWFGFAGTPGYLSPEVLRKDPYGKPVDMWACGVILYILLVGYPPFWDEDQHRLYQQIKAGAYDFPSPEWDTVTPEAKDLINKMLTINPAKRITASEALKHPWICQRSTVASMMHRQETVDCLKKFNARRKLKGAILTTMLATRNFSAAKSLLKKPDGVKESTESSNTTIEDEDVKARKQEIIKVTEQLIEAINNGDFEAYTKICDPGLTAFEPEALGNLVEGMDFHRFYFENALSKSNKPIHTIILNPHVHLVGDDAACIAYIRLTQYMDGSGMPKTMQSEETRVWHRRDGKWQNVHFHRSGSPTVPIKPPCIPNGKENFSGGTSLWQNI
Sequence of CaMKIIδ (Q13557 1-478): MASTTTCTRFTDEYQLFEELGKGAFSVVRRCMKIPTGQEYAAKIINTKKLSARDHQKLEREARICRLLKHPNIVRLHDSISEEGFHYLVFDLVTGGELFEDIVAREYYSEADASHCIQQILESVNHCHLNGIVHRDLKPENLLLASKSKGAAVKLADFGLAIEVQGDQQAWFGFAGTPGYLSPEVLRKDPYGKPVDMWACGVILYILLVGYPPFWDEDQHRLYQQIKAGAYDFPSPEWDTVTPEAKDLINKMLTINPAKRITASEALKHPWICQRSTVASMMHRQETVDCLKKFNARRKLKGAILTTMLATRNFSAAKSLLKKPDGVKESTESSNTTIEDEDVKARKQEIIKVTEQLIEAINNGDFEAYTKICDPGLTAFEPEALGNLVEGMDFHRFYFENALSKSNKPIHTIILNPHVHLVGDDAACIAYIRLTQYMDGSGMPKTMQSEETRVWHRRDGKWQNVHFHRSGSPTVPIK

Usually EC50 stands for the concentration giving half of the maximal effect. Higher therefore signals weaker potency. In the case of “KRAPKLGQIGRQKAVDIED [CN19o, reference compound]”, in the data set with LKB1 knockout mice, the “beat-to-beat variability compared to LKB1 knockout mice alone” value is reported as “performed worse in measures of beat-to-beat variability than LKB1 knockout mice alone”. In addition, the “suppression of beat-to-beat variability” value in the data set with LKB1 knockout mice (AAV-cTnT vector, FIG. 10) is recorded as “did not suppress beat-to-beat variability”. Also, on CaMKIIδ, the EC50 was determined as 1.6 nM. Further, the “IC50 / potency of CaMKII inhibition compared with AIP” value in the data set on CaMKII is “lower IC50 than AIP; also recorded: more potent inhibitor of CaMKII than AIP”.

Molecule “KRAPKLGQIGRQKAVDIEDKRAPKLGQIGRQKAVDIEDKRAPKLGQIGRQKAVDIED [CN19oX3]” came in with an EC50 on CaMKIIδ of 2.1 nM.

With “YKKALHRQEAVDALYKKALHRQEAVDALYKKALHRQEAVDAL [AIP×3]”, the EC50 on CaMKIIδ came out at 543 nM. Against the preceding molecule, the EC50 is about 260-fold higher.

B1: AIPx5 multimer (peptide)
peptide: T1 chain
Consider B1, for which the EC50 (inhibition of CaMKIIδ activity, ADP-GLO bioluminescent ADP monitoring assay) in the data set with CaMKIIδ, Q13557 turned out to be 114 nM.

B2: CN19o (peptide)
peptide: KRAPKLGQIGRQKAVDIED
In the data set with CaMKIIδ, Q13557, B2 registered an EC50 (inhibition of CaMKIIδ activity, ADP-GLO bioluminescent ADP monitoring assay) of 1.6 nM.

B3: CaMKII (endogenous, mouse heart) (protein)
chain: MATTATCTRFTDDYQLFEELGKGAFSVVRRCVKKTSTQEYAAKIINTKKLSARDHQKLEREARICRLLKHPNIVRLHDSISEEGFHYLVFDLVTGGELFEDIVAREYYSEADASHCIHQILESVNHIHQHDIVHRDLKPENLLLASKCKGAAVKLADFGLAIEVQGEQQAWFGFAGTPGYLSPEVLRKDPYGKPVDIWACGVILYILLVGYPPFWDEDQHKLYQQIKAGAYDFPSPEWDTVTPEAKNLINQMLTINPAKRITADQALKHPWQRSTVASMMHRQETVECLRKFNARRKLKGAILTTMLVSRNFSAAKSLLNKKSDGGVKKRKSSSSVHLMPQSNNKNSLVSPAQEPAPLQTAMEPQTTVVHNATDGIKGSTESCNTTTEDEDLKAAPLRTGNGSLVPEGRSPRDRTAPSAGMQPQPSLCSSAMRKQEIIKITEQLIEAINNGDFEAYTKICDPGLTSFEPEALGNLVEGMDFHKFYFENLLSKNSKPIHTTILNPHVHVIGEDAACIAYIRLTQYIDGQGRPRTSQSEETRVWHRRDGKWLNVHYHCSGAPAAPLQ
On to B3, for which the “phosphorylation of phospholamban (PLB) at threonine-17 in heart tissue exposed to isoproterenol (capillary Western, pPLB/PLB)” value (in the data set with AIPx5 multimer; in data set [1]) was “contacting cells with AIP or AIP×5 resulted in a statistically significant decrease in PLB phosphorylation in cells exposed to ISO” throughout.

B4: CN19oX3 multimer (peptide)
peptide: KRAPKLGQIGRQKAVDIEDKRAPKLGQIGRQKAVDIEDKRAPKLGQIGRQKAVDIED
As to B4, the EC50 (inhibition of CaMKIIδ activity, ADP-GLO bioluminescent ADP monitoring assay) with CaMKIIδ, Q13557 worked out at 2.1 nM.

B5: autocamtide-2-related inhibitory peptide (AIP) (peptide)
peptide: YKKALHRQEAVDAL
B5 had an EC50 (inhibition of CaMKIIδ activity, ADP-GLO bioluminescent ADP monitoring assay) with CaMKIIδ, Q13557 of 6150 nM.

B6: AIPx3 multimer (peptide)
peptide: YKKALHRQEAVDALYKKALHRQEAVDALYKKALHRQEAVDAL
Regarding B6, in the data set with CaMKIIδ, Q13557, the EC50 (inhibition of CaMKIIδ activity, ADP-GLO bioluminescent ADP monitoring assay) was determined as 543 nM.
